Experimental data from patent publication US20210221873A1 (Dana-Farber, published 2021).

B1: D8-IgG1 (antibody, V domains shown)
VH: QVQLVQSGAEVKKPGSSVKVSCKASGGTFSAYAFTWVRQAPGQGLEWMGGITGMFGTANYAQKFQGRVTITADELTSTAYMELSSLTSEDTALYYCARGLYYYESSLDYWGQGTLVTVSS
VL: QSVLTQPPSASGSPGQSVTISCTGTSSDVGGYNSVSWYQQHPGKAPKLMIYEVTKRPSGVPDRFSASKSGNTASLTVSGLQAEDEADYFCCSYAGHSAYVFGTGTKVTVL
B2: A66-IgG1 (antibody, V domains shown)
VH: QVQLVQSGAEVKKPGSSVKVSCKASGGPFSMTAFTWLRQAPGQGLEWMGGISPIFRTPKYAQKFQGRVTITADESTNTANMELTSLKSEDTAVYYCARTLSSYQPNNDAFAIWGQGTMVTVSS
VL: EIVLTQSPATLSLSPGERATLSCRASQSVSSYLAWYQQKPGQAPRLLIYDASNRATGIPARFSGSGSGTDFTLTISRLEPEDFAVYFCQQYGSSPQFGQGTRLEIK
B3: F10-IgG1 (antibody, V domains shown)
VH: QVQLVQSGAEVKKPGSSVKVSCTSSEVTFSSFAISWVRQAPGQGLEWLGGISPMFGTPNYAQKFQGRVTITADQSTRTAYMDLRSLRSEDTAVYYCARSPSYICSGGTCVFDHWGQGTLVTVSS
VL: QPGLTQPPSVSKGLRQTATLTCTGNSNNVGNQGAAWLQQHQGHPPKLLSYRNNDRPSGISERFSASRSGNTASLTITGLQPEDEADYYCSTWDSSLSAVVFGGGTKLTVL

Molecular target: full-length H1 HA of H1-SC1918 (A/South Carolina/1/1918 (H1N1)) (influenza A virus A/South …, UniProt Q9WFX3 18-566)
Assay: FACS on transfected 293T cells

Chain of full-length H1 HA of H1-SC1918 (A/South Carolina/1/1918 (H1N1)) (Q9WFX3 18-566): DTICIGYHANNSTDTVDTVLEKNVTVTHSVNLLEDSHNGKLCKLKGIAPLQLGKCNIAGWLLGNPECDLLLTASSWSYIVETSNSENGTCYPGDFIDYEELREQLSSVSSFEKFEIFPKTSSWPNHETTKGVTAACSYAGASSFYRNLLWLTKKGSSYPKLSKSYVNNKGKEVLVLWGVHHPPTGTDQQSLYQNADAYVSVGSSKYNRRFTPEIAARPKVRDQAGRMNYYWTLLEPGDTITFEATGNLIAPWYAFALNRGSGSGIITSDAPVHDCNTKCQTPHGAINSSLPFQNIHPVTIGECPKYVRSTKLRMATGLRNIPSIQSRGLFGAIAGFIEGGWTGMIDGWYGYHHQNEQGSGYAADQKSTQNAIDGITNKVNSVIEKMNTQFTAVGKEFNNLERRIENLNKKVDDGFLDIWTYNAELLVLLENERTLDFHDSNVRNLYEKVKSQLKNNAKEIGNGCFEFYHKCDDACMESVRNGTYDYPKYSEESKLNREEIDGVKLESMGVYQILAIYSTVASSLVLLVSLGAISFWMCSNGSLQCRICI

Binder | binding result
B1 | binds
B2 | binds
B3 | binds

Molecular target: full-length H1 HA of H1-PR34 (A/Puerto Rico/8/34 (H1N1)) (influenza A virus A/Puerto Rico/8/34 …, UniProt P03452 18-565)
Assay: FACS on transfected 293T cells

Chain of full-length H1 HA of H1-PR34 (A/Puerto Rico/8/34 (H1N1)) (P03452 18-565): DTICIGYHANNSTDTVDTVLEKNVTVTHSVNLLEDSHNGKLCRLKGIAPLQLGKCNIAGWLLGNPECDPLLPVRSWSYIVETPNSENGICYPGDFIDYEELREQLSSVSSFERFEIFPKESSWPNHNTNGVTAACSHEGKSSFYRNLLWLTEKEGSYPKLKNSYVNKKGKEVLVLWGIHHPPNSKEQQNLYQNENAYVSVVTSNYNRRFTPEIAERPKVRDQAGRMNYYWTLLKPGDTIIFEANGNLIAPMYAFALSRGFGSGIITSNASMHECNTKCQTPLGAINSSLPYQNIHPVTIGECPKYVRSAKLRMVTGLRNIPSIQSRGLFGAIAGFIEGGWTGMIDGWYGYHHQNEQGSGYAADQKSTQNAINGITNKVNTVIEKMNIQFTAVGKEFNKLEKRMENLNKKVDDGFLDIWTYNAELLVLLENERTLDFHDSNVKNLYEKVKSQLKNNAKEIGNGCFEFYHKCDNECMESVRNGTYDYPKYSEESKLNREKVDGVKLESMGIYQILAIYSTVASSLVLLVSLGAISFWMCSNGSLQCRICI

Binder | binding result
B1 | binds
B2 | binds
B3 | binds

Molecular target: full-length H2 HA of H2-JP57 (A/Japan/305/57 (H2N2)) (influenza A virus A/Japan/305/57 (H2N2), UniProt P03451 16-562)
Assay: FACS on transfected 293T cells

Binder | binding result
B1 | binds
B2 | binds
B3 | binds

Molecular target: full-length H8 HA of H8-ON68 (A/turkey/Ontario/6118/68) (influenza A virus …, UniProt P03456 16-565)
Assay: FACS on transfected 293T cells

Chain of full-length H8 HA of H8-ON68 (A/turkey/Ontario/6118/68) (P03456 16-565 limits assumed): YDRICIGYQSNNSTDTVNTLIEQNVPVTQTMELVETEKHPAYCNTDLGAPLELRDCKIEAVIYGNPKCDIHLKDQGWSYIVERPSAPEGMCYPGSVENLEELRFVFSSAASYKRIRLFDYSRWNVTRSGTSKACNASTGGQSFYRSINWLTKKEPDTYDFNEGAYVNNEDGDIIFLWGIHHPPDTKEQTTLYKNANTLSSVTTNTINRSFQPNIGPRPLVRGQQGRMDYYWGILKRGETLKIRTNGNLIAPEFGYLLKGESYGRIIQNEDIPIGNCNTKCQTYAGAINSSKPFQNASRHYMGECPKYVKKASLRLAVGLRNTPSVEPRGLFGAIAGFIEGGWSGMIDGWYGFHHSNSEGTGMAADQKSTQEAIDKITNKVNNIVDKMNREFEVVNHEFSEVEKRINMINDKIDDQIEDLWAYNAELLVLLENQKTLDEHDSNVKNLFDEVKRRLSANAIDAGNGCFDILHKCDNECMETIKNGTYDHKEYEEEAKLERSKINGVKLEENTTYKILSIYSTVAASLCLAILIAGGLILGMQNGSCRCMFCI

Binder | binding result
B1 | binds
B2 | binds
B3 | binds

Molecular target: full-length H13 HA of H13-MD77 (A/Gull/MD/704/77 (H13N6)) (influenza A virus A/Gull/MD/704/77 …, UniProt P13103 19-566)
Assay: FACS on transfected 293T cells

Chain of full-length H13 HA of H13-MD77 (A/Gull/MD/704/77 (H13N6)) (P13103 19-566): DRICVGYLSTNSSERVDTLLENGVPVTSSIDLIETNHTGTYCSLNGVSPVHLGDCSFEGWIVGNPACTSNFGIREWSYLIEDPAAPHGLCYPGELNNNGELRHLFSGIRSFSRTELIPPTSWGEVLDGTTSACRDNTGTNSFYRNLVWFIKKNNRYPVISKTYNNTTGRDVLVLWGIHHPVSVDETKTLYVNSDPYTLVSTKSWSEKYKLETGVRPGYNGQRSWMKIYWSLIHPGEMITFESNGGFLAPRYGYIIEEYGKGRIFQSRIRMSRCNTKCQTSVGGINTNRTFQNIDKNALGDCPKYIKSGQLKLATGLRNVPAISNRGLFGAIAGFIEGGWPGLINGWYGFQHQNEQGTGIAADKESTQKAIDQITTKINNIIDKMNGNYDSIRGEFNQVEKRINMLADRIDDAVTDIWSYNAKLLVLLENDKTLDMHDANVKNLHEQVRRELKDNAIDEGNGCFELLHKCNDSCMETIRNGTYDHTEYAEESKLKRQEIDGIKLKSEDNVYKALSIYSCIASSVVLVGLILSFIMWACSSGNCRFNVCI

Binder | binding result
B1 | binds
B2 | binds
B3 | binds

Molecular target: full-length H7 HA of H7-FP34 (A/FPV/Rostock/34 (H7N1)) (influenza A virus A/FPV/Rostock/34 …, UniProt P03459 19-563)
Assay: FACS on transfected 293T cells

Chain of full-length H7 HA of H7-FP34 (A/FPV/Rostock/34 (H7N1)) (P03459 19-563): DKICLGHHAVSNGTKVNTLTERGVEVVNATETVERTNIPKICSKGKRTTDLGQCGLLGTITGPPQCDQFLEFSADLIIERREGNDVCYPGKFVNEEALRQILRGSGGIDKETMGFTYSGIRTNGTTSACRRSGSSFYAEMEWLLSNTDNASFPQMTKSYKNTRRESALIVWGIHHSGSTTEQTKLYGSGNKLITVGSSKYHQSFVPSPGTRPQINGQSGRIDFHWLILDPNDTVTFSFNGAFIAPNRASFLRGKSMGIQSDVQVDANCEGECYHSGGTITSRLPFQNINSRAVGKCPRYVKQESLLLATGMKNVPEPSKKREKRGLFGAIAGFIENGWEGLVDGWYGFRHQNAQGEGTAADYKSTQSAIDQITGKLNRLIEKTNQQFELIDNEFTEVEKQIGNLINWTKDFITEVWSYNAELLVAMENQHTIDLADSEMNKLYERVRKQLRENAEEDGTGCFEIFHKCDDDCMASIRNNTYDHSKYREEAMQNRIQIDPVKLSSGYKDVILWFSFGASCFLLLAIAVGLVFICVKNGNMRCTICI

Binder | binding result
B1 | no binding (tested: 10 µg/mL)
B2 | no binding (tested: 10 µg/mL)
B3 | no binding (tested: 10 µg/mL)

Molecular target: full-length H14 HA of H14-CU82 (A/mallard/Gurjev/263/82 (H14N5)) (influenza A virus …, UniProt P26136 18-568)
Assay: FACS on transfected 293T cells

Chain of full-length H14 HA of H14-CU82 (A/mallard/Gurjev/263/82 (H14N5)) (P26136 18-568 limits assumed): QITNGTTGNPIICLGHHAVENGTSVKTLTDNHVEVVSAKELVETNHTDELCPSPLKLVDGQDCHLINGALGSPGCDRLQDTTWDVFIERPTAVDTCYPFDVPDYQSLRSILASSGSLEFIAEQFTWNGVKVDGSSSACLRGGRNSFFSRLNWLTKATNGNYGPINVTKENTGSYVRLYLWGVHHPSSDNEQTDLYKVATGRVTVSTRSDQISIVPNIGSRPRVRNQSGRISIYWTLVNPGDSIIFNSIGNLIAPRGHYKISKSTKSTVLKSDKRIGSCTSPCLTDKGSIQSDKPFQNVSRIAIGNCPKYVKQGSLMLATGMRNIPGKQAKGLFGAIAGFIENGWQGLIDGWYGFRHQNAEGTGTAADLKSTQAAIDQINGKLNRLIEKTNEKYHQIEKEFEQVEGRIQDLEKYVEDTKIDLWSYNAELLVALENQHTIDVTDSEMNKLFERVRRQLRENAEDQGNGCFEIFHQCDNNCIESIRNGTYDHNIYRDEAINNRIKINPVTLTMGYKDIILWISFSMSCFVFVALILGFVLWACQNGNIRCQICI

Binder | binding result
B1 | no binding
B2 | no binding
B3 | no binding
